Experiment [1] has as its target human IL-13 wild type (human) (UniProt P35225). Description: competition, cell surface RBA: IL-13 to IL-13Rα2 on COS cells.
Experiment [2] has the same target. In words: competition, ELISA RBA: IL-13 to IL-13Rα2/Fc. (In general: ELISA stands for enzyme-linked immunosorbent assay.)

Chain of human IL-13 wild type (human) (P35225 other isoform, or with tags, fused parts or gaps limits assumed): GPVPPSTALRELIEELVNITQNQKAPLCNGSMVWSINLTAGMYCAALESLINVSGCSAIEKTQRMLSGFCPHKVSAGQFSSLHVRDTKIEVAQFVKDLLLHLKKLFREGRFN

B1: MJ2-7 (antibody, from another filing, V domains shown)
VH: EVQLQQSGAELVKPGASVKLSCTGSGFNIKDTYIHWVKQRPEQGLEWIGRIDPANDNIKYDPKFQGKATITADTSSNTAYLQLNSLTSEDTAVYYCARSEENWYDFFDYWGQGTTLTVSS
VL: DVLMTQTPLSLPVSLGDQASISCRSSQSIVHSNGNTYLEWYLQKPGQSPKLLIYKVSNRFSGVPDRFSGSGSGTDFTLKISRVEAEDLGVYYCFQGSHIPYTFGGGTKLEIK
With B1, the values for the percent inhibition at 100 nM in experiment [1] and in experiment [2] were 70% and 60%, respectively.

The values above are taken from patent US20140099313A1.
